T1: hiR2-FL-D535-T7 (deletion of D535) (human, UniProt Q6PJF5 1-856)
T1 construct: single amino acid deletion
T1 sequence: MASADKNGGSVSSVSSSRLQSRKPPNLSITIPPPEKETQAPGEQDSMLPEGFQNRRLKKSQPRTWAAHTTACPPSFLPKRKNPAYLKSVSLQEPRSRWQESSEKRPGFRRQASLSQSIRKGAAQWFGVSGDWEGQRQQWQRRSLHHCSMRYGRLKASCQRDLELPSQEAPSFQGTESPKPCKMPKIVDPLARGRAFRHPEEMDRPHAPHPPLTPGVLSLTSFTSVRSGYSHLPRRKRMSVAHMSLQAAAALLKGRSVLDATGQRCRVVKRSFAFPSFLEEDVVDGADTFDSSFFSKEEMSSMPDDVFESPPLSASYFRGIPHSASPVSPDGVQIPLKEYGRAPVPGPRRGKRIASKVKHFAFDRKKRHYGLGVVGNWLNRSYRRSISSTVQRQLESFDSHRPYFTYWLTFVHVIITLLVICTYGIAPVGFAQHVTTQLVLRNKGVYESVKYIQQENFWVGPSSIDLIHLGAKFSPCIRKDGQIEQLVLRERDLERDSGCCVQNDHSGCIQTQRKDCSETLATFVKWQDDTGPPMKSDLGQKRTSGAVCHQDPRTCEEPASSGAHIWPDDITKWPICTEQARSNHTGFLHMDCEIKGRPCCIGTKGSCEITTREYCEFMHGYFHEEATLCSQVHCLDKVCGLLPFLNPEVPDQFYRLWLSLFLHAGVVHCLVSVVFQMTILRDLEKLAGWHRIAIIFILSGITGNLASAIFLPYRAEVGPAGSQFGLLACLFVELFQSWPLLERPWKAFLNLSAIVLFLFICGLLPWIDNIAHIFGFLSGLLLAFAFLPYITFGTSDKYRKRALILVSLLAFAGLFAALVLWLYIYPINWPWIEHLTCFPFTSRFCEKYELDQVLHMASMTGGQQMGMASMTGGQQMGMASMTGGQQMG

B1: antibody 34 (antibody, V domains shown)
VH: QVTLKESGPGILQPSQTLSLTCSFSGFSLSTFSLGVGWIRQSSGKGLEWLAHIWWDDEKYYNPALKSRLTISKDTSKNQVFLKIANVDAADTATYYCARAYYSKSYYALDYWGQGTSVTVSS
VL: DIQMTQSPSSLSASLGERVSLTCRASQEISGYLSWLQQKPDGTIKRLIYAASTLDSGVPKRFSGSRSGSDYSLAISSLESEDFADYYCLQYANFPFTFGSGTKLEIK
notes: mouse IgG, kappa light chain; also called clone #34; purified antibody 34
B2: antibody 5 (antibody, V domains shown)
VH: QVTLKESGPGILQPSQTLSLTCSFSGFSLSTFGMGVGWIRQPSGKGLEWLAHIWWDDEKYYNSALKSRLTISKATSKNQAFLKIANVDTADTATYYCARISNYGSNYWYFNVWGTGTTVTVSS
VL: QVVLTQSPALMSASPGEKVTMTCSAGSSVSCMYWYQQKPGSSPRVLIYDTSNLASGVPARFTGSGSGTSYSLTISRMEAEDAASYYCQQWNSYPLTFGAGTKLELK
notes: mouse IgG, kappa light chain; also called clone #5; purified antibody 5
B3: antibody 42 (antibody, V domains shown)
VH: QVTLKESGPGILQPSQTLSLTCSLSGFSLSTFGRGVGWIRQPSGKGLEWLAHIWWDDEKYYNPALKSRLTISKDTSKNQVFLRIANVDTADTATYYCARIQNYGSNYWYFDVWGTGTTVTVSS
VL: LIVLTQSPAIMSASPGEKVTMTCGATSRISYMFWYQQKPGSSPRVLIYDTSNLASGVPVRFSGSGSGTSYSLTISRVEAEDVATYYCQQWNSYPLTFGAGTKLELK
notes: mouse IgG, kappa light chain; also called clone #42; purified antibody 42
B4: antibody 43 (antibody, V domains shown)
VH: QVALKESGPGILQPSQTLSLTCSFSGFSLSTFGMGVGWIRQSSGKGLEWLANIWWDDDKYYNPALKSRLTISKDASKNQAFLKIANVDTADTATYYCARIGNYGSNYWYFDVWGTGTTVTVSS
VL: QIVLTQSPAIMSASPGERVTMTCSANSRISYMYWYQQKPGSSPRLLIYDTSNLASGVPVRFSGSGSGTSYSLTISRMEAEDAATYNCQQWSSYPLTFGAGTKLELK
notes: mouse IgG, kappa light chain; also called clone #43; purified antibody 43
B5: antibody 44 (antibody, V domains shown)
VH: QVTLKESGPGILQPSQTLSLTCSFSGFSLSTFGMGVGWIRQPSEKGLEWLAHIWWDDDKYYNPALKSRLTISKDTSKNQIFLKITNVDTAETATYYCSRIGNYGSNYWYFDVWGTGTTVTVSS
VL: QIVLTQSPAVMSASPGEKVTMTCTASSSVYYMYWYQQTPGSSPRLLIYDTSNLASGVPVRFSGSGSGTSYSLTISRMEAEDAATYYCQQWNTYPLTFGAGTKLELK
notes: mouse IgG, kappa light chain; also called clone #44; purified antibody 44
B6: antibody 22 (antibody, V domains shown)
VH: QVTLKESGPGILQPSQTLSLTCSFSGFSLSTFGMGVGWIRQPSGKGLEWLAHIWWDDEKYYNSALKSRLTISKATSKNQVFLKIANVDTADTATYYCARISNYGSNYWYFNVWGTGTTVTVSS
VL: QVVLTQSPALMSASPGEKVTMTCSAGSSVSYMYWYQQKPGSSPRVLIYDTSNLASGVPARFTGSGSGTSYSLTISRMEAEDAATYYCQQWNSYPLTFGAGTKLELK
notes: mouse IgG, kappa light chain; also called clone #22; purified antibody 22
B7: antibody 16 (antibody, V domains shown)
VH: QVTLKESGPGILQPSQTLSLTCSFSGFSLSTFALGVGWIRQPSGRGLEWLAHIWWDDDKYYNPALKSRLTISKDTSKNHVFLKIANVDTADTATYYCARITTYYYGMDYWGQGTSVTVSS
VL: DIVLSQSPATLSVTPGDSVSLFCRASQSIGNHLHWYQQESHASPRLLIKYASQSISGIPSRFSGSGSGTDFTLSINSVETEDFGMYFCQQSYNWPLTFGAGTKLELK
notes: mouse IgG, kappa light chain; also called clone #16; purified antibody 16
B8: antibody 3 (antibody, V domains shown)
VH: QVTLKESGPGILQPSQTLSLTCSFSGFSLTTFAMGIGWVRQPSGKGLEWLAHIWWDGEKYNNPVLKSRLTISKDTSKNQVFLRIANVDTPDTATYYCARISSIYYIIDNWGQGTSVTVSS
VL: DIVLTQSPATLSVTPGHSVSLSCRASQSISNNLHWYQKKSHESPRLLIKYVSQSISGIPSRFSGSGSGTDFTLSINSVETEDFGMYFCQQSYNWPLTFGAGTKLELK
notes: mouse IgG, kappa light chain; also called clone #3; purified antibody 3

Molecular target: T1, hiR2-FL-D535-T7 (deletion of D535)
Assay: FACS, MEF-DKO cells, 3 µg/ml

Row | Binder | loss of binding vs wild type [%]
1 | B1 | ≥ 95
2 | B2 | ≥ 95
3 | B3 | ≥ 95
4 | B4 | ≥ 95
5 | B5 | ≥ 95
6 | B6 | ≥ 95
7 | B7 | ≥ 95
8 | B8 | ≥ 95

Reference: patent publication US20240287172A1 (SCIRHOM, published 2024)
